In paper PMC10393194 one finds stoichiometry N data, which are given here for one substance.

This test deals with THO complex (endogenous, purified via Sub2 and Hpr1-TS) (S. cerevisiae | S. cerevisiae (endogenous in yeast)) (UniProt P17629). Kind of test: cryo-EM structure; single-particle cryo-EM of the benzonase-treated native eluate on 2-nm carbon-supported grids; Glacios 200 kV; heterogeneous and nonuniform refinement without imposed symmetry.

On to “THO complex (endogenous, purified via Sub2 and Hpr1-TS) (from UniProt P17629 1-752; P53552 1-1597)”, for which the stoichiometry N – broadly, the number of molecules, sites or subunits per partner or assembly – came to 2.
